From patent US20230340152A1

B1: CD730042 (antibody, V domains shown)
VH: GVQLVQSGGGLVQPGGSLRLSCAASGFTFSSYGMHWVRQAPGKGLEWVAVISYDGSIKYYADSVKGRFTISRDDSKNALYLQMNSLRAEDTAVYYCSTLSGSYGYFDYWGRGTLVTVSS
VL: QSVLTQPASVSGSPGQSITISCAGTSSDVGGYNYVSWYQQHPGKAPKLMIYEGSKRPSGVSNRFSGSKSGNTASLTISGLQAEDEADYYCSSYTTRSTRVFGGGTKLTVL
B2: CD730047 (antibody, V domains shown)
VH: EVQLVQSGGGVVQPGRSLRLSCAASGFTFSSYGMHWVRQAPGKGLEWVAVISYDGSIKYYADSVKGRFAISRDNAKNTLYLQMNSLRREDTAMYYCASGLTGVAGALGVWGRGTLVTVSS
VL: QSVLTQPPSASGAPGQRVTISCSGSSSNIGSNTVNWYQRLPGAAPQLLIYNNDQRPSGIPDRFSGSKSGTSGSLVISGLQSEDEADYYCAAWDDSLSGNVFGTGTKVTVL

Experiments:
[1] = target: Murine CD73 ECD (murine) (UniProt Q61503); assay: binding assay, format not stated
[2] = target: Cynomolgus CD73 ECD (cynomolgus); assay: binding assay, format not stated
Sequence of Cynomolgus CD73 ECD (cynomolgus) (chain, as listed by the source): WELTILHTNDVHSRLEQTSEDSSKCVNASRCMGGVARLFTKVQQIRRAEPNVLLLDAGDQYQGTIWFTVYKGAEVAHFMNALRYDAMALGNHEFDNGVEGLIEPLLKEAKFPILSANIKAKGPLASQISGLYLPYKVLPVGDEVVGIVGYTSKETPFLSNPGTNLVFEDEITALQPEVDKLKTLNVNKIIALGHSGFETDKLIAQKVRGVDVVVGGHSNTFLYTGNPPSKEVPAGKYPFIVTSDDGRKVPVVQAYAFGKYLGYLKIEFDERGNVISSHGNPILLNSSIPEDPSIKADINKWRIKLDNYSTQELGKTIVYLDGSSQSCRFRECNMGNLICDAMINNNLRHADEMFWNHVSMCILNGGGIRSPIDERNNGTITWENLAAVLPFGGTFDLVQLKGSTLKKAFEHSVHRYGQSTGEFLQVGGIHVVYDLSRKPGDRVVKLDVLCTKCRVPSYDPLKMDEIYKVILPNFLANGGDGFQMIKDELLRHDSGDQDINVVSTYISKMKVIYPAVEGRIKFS

Sequence of Murine CD73 ECD (murine) (Q61503 29-551 limits assumed): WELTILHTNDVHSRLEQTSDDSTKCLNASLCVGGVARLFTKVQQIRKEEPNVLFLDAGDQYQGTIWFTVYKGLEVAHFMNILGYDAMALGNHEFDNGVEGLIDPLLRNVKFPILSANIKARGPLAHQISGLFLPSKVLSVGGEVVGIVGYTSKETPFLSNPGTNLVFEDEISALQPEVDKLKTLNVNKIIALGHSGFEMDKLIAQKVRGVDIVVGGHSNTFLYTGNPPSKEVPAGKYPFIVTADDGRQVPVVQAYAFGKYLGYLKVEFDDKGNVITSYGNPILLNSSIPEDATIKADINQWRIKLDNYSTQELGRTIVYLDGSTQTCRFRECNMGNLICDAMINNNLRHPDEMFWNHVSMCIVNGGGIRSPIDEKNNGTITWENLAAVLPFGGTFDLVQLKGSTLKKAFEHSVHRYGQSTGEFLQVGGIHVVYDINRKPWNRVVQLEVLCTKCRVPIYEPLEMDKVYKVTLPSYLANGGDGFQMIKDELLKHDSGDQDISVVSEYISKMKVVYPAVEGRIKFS

Binder	1/EC50 [1]	1/EC50 [2]
B1	0 nM⁻¹	
B2	0 nM⁻¹	0 nM⁻¹
